Experimental findings from CN111363035A (DONGGUAN PENGZHI BIOTECHNOLOGY CO LTD, dated 2020) are described below.

For this assay, the target named is T1, 重组FABP蛋白(自产，140618) (human, UniProt P05413 1-133, limits assumed).
T1 construct: The coated protein is only called 'recombinant FABP protein'; also called 心型脂肪酸结合蛋白; H-FABP
Put plainly: indirect ELISA, recombinant FABP protein coated, CHO transient supernatant, goat anti-mouse IgG-HRP.

T1 sequence (P05413 whole entry): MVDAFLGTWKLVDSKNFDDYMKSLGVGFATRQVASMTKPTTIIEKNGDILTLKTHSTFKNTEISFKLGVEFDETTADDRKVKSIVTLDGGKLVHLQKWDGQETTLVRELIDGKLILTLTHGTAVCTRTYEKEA

B1: Anti-FABP 8F3 重组抗体 (抗人心型脂肪酸结合蛋白的重组抗体) (antibody, V domains shown)
VH: QVQLQQPGADLVRPGASVKLSCKTSGYSFTGYFMNWVKQRPGQGLEWIGMIHASDSSTRLNQKFKDKATLTVDKSSTTVYMQFSSPTSEDSAVYYCARGIRDFAYWGQGTLVTVSA
VL: DIVMTQSQKFMSTSVGDRVSITCKASNNIASSVAWYQLRPGQSPKALIYSPTYRYSGIPDRFTGSGSGTDFTLTISNVQSEDLAEYFCQQYNSYPLSFGSGTKLEIK
As to B1, the “OD450 (reference 630 nm) at 1000-fold dilution of the supernatant” value was above 1 OD.
